From patent publication US20190127480A1 (Regeneron, published 2019)
Numbering of substitutions follows the chain as printed. Values belong to the binder of their own block, whether it stands above or below them.

What was measured:
[1] = molecular target: T1, Soluble heterodimeric CD3 protein (hCD3-epsilon/hCD3-delta) with either a human Fc tag (hFcΔAdp/hFc) or a … (human, UniProt P07766 23-126; P04234 22-105); assay: SPR Biacore 25C antigen-capture
T1 construct: also called hCD3ε/δ; not shown: Fc tag: human (hFcΔAdp/hFc)
T1 sequence (P07766 23-126 limits assumed, stated change not applied, chain 1 of 2): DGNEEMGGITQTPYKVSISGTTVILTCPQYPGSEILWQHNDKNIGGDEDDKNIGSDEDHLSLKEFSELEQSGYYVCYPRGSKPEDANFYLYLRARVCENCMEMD
T1 sequence (P04234 22-105 limits assumed, stated change not applied, chain 2 of 2): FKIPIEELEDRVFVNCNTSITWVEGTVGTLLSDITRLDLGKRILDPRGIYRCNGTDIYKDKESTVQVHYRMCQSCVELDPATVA
Protocol: (§1) Measurements were conducted on a T200 Biacore™ instrument.
In the antigen-capture format, heterodimeric CD3 protein was captured using a rabbit anti-mouse Fc or mouse anti-human Fc and the respective antibodies were injected over the captured antigen.
(§2) Kinetic association (kₐ) and dissociation (kd) rate constants were determined by processing and fitting the data to a 1:1 binding model using Scrubber 2.0 curve fitting software. Binding dissociation equilibrium constants (KD) and dissociative half-lives (t₁₁₂) were calculated from the kinetic rate constants as: KD (M)=kd/kₐ; and t_{1/2} (min)=(ln 2/(60*kd). NT=not tested; NB=no binding observed.

[2] = molecular target: T2, Soluble heterodimeric CD3 protein (hCD3-epsilon/hCD3-delta) with a human Fc tag (hFcΔAdp/hFc) or a mouse Fc … (human, UniProt P07766 23-126; P04234 22-105); assay: SPR Biacore, 25 C, antibody-capture format
T2 construct: also called hCD3ε/δ; not shown: Fc tag: human (hFcΔAdp/hFc); which tag was used in Ta
T2 sequence (P07766 23-126 limits assumed, stated change not applied, chain 1 of 2): as the sequence (P07766 23-126 limits assumed, stated change not applied, chain 1 of 2) above
T2 sequence (P04234 22-105 limits assumed, stated change not applied, chain 2 of 2): as the sequence (P04234 22-105 limits assumed, stated change not applied, chain 2 of 2) above
Protocol: as §1
Soluble heterodimeric CD3 protein (hCD3-epsilon/hCD3-delta; SEQ ID NOs:1652/1653) with either a human Fc tag (hFcΔAdp/hFc; SEQ ID NOs:1683/1684) or a mouse Fc tag (mFcΔAdp/mFc; SEQ ID NOs:1685/1686) was injected over the antibody captured surface and the binding response was recorded. Heterodimeric CD3 protein was purified using the method described in Davis et al. (US2010/0331527).
as §2

- Kd [2]: 80.7 nM
- T½ [2]: 4 min
- koff [2]: 0.003 s⁻¹
- kon [2]: 37200 M⁻¹ s⁻¹
B5: H2M2862N (antibody, V domains shown)
VH: QVQLVESGGGVVQPGRSLRLSCAASGFTFRSYGMHWVRQAPGKGLEWVAMIYYDGNNKKYADSVRGRFTISRDNSKNTLYLQMNSLRVEDTAVYFCARGPGYNWLDPWGQGTLVTVSS
VL: EIVMTQSPATLSVSPGERATLSCRASQSVSRNLAWYQQKPGQAPRLLIYGASTRATDIPARFSGSGSGTEFILNISSLQSEDFALYYCQQYSNWPLTFGGGTEVEIK
notes: Hybridoma antibody, human variable regions, mouse IgG2 Fc

- Kd [2]: 43.9 nM
- T½ [2]: 7 min
- koff [2]: 0.00163 s⁻¹
- kon [2]: 37000 M⁻¹ s⁻¹
B6: H2M2777N (antibody, V domains shown)
VH: B5 VH with A23I, K59Y, V88A, E89D
VL: B5 VL with R31S, D57G, I72T, N74T, L85V, S92N, W94R, E103K
notes: as for B5

- Kd [2]: 8.9 nM
- T½ [2]: 61 min
- koff [2]: 0.000189 s⁻¹
- kon [2]: 21300 M⁻¹ s⁻¹
B10: H2M2778N (antibody, V domains shown)
VH: EVQLVESGGGLVQPGRSLRLSCAASGFTFDDYSMHWVRQAPGKGLEWVSGISWNSRSIDYADSVKGRFTISRDNAKNSLYLQMNSLRAEDTALYYCVKDNSGYGRYYYYGMDVWGQGTTVSVSS
VL: KIVMTQSPATLSVSPGERATLSCRASQSVSGNLAWYQQKPGQAPRLLIYGASTRATSIPARFSGSGSGTEFTLTISSLQSEDFAVYFCQHYYNWPLTFGGGTKVEIR
notes: as for B5

- Kd [2]: 10.5 nM
- T½ [2]: 51 min
- koff [2]: 0.000228 s⁻¹
- kon [2]: 21800 M⁻¹ s⁻¹
B11: H2M2779N (antibody, V domains shown)
VH: EVQLVESGGGLVQPGGSLRLSCAATGFTFDDFTMHWVRQAPGKGLEWVSGISWNSGSIGYVDSVKGRFTISRDNAKNSLYLQMNSLRAEDTALYYCAKDNSGYGYYYYGMDVWGQGTTVTVSS
VL: not shown
notes: as for B5

- Kd [1]: 0.0938 nM
- T½ [1]: 941 min
- koff [1]: 1.23e-05 s⁻¹
- kon [1]: 128000 M⁻¹ s⁻¹
B12: H2M2779N (antibody, V domains shown)
VH: B11 VH
VL: not shown
notes: H2M: mouse IgG2 Fc, human variable regions; divalent

- Kd [2]: 8.98 nM
- T½ [2]: 18 min
- koff [2]: 0.000626 s⁻¹
- kon [2]: 69700 M⁻¹ s⁻¹
B14: H2M2775N (antibody, V domains shown)
VH: B5 VH with Y32F, K43R, Y53F, N56K, K59Y, Q82E, N84S, V88A
VL: EIVMTQSPATLSVSPGERVILSCRASQSISRNLAWYQQKPGQAPRLLIYGATTRATGVPARFSGSGSGTEFTLTISSLQSEDFAVFYCQQYNNRPLTFGGGTEVEIK
notes: as for B5

- Kd [2]: 8.96 nM
- T½ [2]: 18 min
- koff [2]: 0.000653 s⁻¹
- kon [2]: 72900 M⁻¹ s⁻¹
B18: H2M2886N (antibody, V domains shown)
VH: B5 VH with Y32F, K43R, Y53F, N56K, K59Y, Q82E, N84S, V88A
VL: B14 VL
notes: as for B5

- Kd [2]: 9.54 nM
- T½ [2]: 18 min
- koff [2]: 0.000651 s⁻¹
- kon [2]: 68200 M⁻¹ s⁻¹
B19: H2M2885N (antibody, V domains shown)
VH: B5 VH with Y32F, K43R, Y53F, N56K, K59Y, Q82E, N84S, V88A
VL: B14 VL
notes: as for B5

- Kd [2]: 189 nM
- T½ [2]: 9 min
- koff [2]: 0.00135 s⁻¹
- kon [2]: 7100 M⁻¹ s⁻¹
B22: H2M3541N (antibody, V domains shown)
VH: EVQLVESGGGLVRPGRSLRLSCAASGFTFDDYTMHWVRQAPGKGLEWVSDISWNSGTIGYADSVKGRFTISRDNAKNSLYLQMNSLRPEDTALYYCAKDMSGYAHYYYYGMDVWGQGTTVTVSS
VL: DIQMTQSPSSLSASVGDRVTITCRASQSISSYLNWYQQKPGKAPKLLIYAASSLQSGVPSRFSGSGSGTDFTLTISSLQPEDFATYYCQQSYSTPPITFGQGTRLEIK
notes: as for B5

- Kd [2]: 16.2 nM
- T½ [2]: 19 min
- koff [2]: 0.000611 s⁻¹
- kon [2]: 37700 M⁻¹ s⁻¹
B24: H2M3540N (antibody, V domains shown)
VH: QVHLEESGGGVVQPGRSLRLSCSASGFTFSSYAMHWVRQAPGKGLEWVAVIWYDGTNKYYLDSVKGRFTISRDNSKNTLFLQMNSLRAEDTAVYYCARDRGSIITHWGQGTLVTVSS
VL: DIQMTQSPSSLSASIGDRVTITCRASQNISSYLNWYQQKPGKAPKLLIYAASSLQSGVPSRFSGSGSGTDFTLTISSLQPEDFATYYCQQTYSTPPITFGQGTRLEIK
notes: as for B5

Further lines, the binder ahead of its results:

B1: H1M3544N (antibody, mouse IgG1, V domains shown)
VH: EVQLVESGGGLVQPGRSLRLSCAASGFTFDDYTMHWVRQVPGKGLEWVSGISWNSGSLAYADSVKGRFTISRDNAKNSLYLQMNSLHPEDTALYYCVKDGSGYGHYSYYGLDVWGQGTTVTVSS
VL: not shown
notes: H1M: mouse IgG1 Fc, human variable regions; divalent
- T½ [1]: 193 min

B2: H2M2690N (antibody, V domains shown)
VH: B11 VH with G16R, T25S, F32Y, V61A, N77K, Y105H, S122A
VL: B10 VL with K1E, G31S, S57G, F87Y, Y92I, R107K
notes: as for B5
- Kd [2]: 20.9 nM
- T½ [2]: 57 min
- koff [2]: 0.000202 s⁻¹
- kon [2]: 9700 M⁻¹ s⁻¹

B3: H1M2692N (antibody, V domains shown)
VH: B10 VH with R16G, T28S, S33T, A40P, R56G, D59G, E89G, V97A, R105Y, S121T
VL: B10 VL with K1E, G31S, S57G, F87Y, H90Q, R107K
notes: Hybridoma antibody, human variable regions, mouse IgG1 Fc
- Kd [2]: 53.9 nM
- T½ [2]: 27 min
- koff [2]: 0.000434 s⁻¹
- kon [2]: 8050 M⁻¹ s⁻¹

B4: H2M2708N (antibody, V domains shown)
VH: B5 VH with Y32F, K43R, Y53F, N56K, K59Y, Q82E, N84S, V88A
VL: B14 VL with I20T, T52S, Y87H
notes: as for B5
- Kd [2]: 8.82 nM
- T½ [2]: 19 min
- koff [2]: 0.000612 s⁻¹
- kon [2]: 69400 M⁻¹ s⁻¹

B7: H1M2712N (antibody, V domains shown)
VH: B11 VH
VL: B5 VL with Q27H, L33S, D57G, I72T, N74T, L85I, S92N, E103K
notes: Mouse IgG1 Fc form
- Kd [2]: 23.5 nM
- T½ [2]: 53 min
- koff [2]: 0.000219 s⁻¹
- kon [2]: 9320 M⁻¹ s⁻¹

B8: H2M2707N (antibody, V domains shown)
VH: B5 VH with A23I, K59Y, V88A, E89D
VL: B5 VL with R31S, D57G, I72T, N74T, L85V, S92N, W94R, E103K
notes: as for B5
- Kd [2]: 63.5 nM
- T½ [2]: 6 min
- koff [2]: 0.00187 s⁻¹
- kon [2]: 29500 M⁻¹ s⁻¹

B9: H2M2691N (antibody, V domains shown)
VH: B11 VH with G16R, T25S, F32Y, V61A, N77K, Y105H, S122A
VL: B10 VL with K1E, G31S, S57G, F87Y, Y92I, R107K
notes: as for B5
- Kd [2]: 20.1 nM
- T½ [2]: 56 min
- koff [2]: 0.000207 s⁻¹
- kon [2]: 10300 M⁻¹ s⁻¹

B13: H2M2710N (antibody, V domains shown)
VH: B5 VH with Y32F, K43R, Y53F, N56K, K59Y, Q82E, N84S, V88A
VL: B14 VL with V19A, I20T, I29V, T52S, Y87H
notes: as for B5
- Kd [2]: 11.2 nM
- T½ [2]: 15 min
- koff [2]: 0.000753 s⁻¹
- kon [2]: 67200 M⁻¹ s⁻¹

B15: H2M2774N (antibody, V domains shown)
VH: B5 VH with A23V, E46Q, N56K, K59Y, V88A, V93M
VL: EIVMTQSPATLSVSPGERATLSCRASQRISSNLAWYQQKPGQAPRLLIYGASTRATGSPARFSGSGSGTEFTLTISSLQSEDVAVYYCQQHNNWPLTFGGGTKVEIK
notes: as for B5
- Kd [2]: 11.8 nM
- T½ [2]: 13 min
- koff [2]: 0.000918 s⁻¹
- kon [2]: 77900 M⁻¹ s⁻¹

B16: H2M2706N (antibody, V domains shown)
VH: B5 VH with G33A, I51V, K58Q, K59Y, V88A, E89D
VL: B15 VL with R28S, I29V, S31R, S58I, E70D, V83F, H91Y, E105V
notes: as for B5
- Kd [2]: 135 nM
- T½ [2]: 3 min
- koff [2]: 0.00444 s⁻¹
- kon [2]: 32900 M⁻¹ s⁻¹

B17: H2M2711N (antibody, V domains shown)
VH: B5 VH with Y32F, K43R, Y53F, N56K, K59Y, Q82E, N84S, V88A
VL: B14 VL with V19A, I20T, I29V, T52S, Y87H
notes: as for B5
- Kd [2]: 11.4 nM
- T½ [2]: 15 min
- koff [2]: 0.000767 s⁻¹
- kon [2]: 67200 M⁻¹ s⁻¹

B20: H1M3549N (antibody, V domains shown)
VH: B22 VH with R13Q, A23V, T28P, D30A, T57S, P88T, Y107F
VL: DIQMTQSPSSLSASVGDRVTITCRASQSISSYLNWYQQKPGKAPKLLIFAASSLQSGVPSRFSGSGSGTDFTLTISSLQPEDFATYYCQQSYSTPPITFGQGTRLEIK
notes: as for B3
- Kd [2]: 77.6 nM
- T½ [2]: 13 min
- koff [2]: 0.000919 s⁻¹
- kon [2]: 11800 M⁻¹ s⁻¹

B21: H1M3542N (antibody, V domains shown)
VH: B22 VH with R13Q, A23V, T28P, D30A, T57S, I58K, P88T, L93F, Y107F
VL: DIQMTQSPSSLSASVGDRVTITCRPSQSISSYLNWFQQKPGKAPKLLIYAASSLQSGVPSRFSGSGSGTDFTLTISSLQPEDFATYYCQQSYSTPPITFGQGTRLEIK
notes: as for B3
- Kd [2]: 21.4 nM
- T½ [2]: 23 min
- koff [2]: 0.000508 s⁻¹
- kon [2]: 23700 M⁻¹ s⁻¹

B23: H1M3613N (antibody, V domains shown)
VH: B22 VH with R13Q, R19K, A23T, D30A, A40G, T57S, I58K, P88T, G110A, M111L
VL: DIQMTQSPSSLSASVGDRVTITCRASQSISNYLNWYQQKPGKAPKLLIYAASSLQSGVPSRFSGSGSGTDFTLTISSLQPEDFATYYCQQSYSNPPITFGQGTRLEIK
notes: as for B3
- Kd [2]: 15.7 nM
- T½ [2]: 38 min
- koff [2]: 0.000304 s⁻¹
- kon [2]: 19300 M⁻¹ s⁻¹

B25: H2M2689N (antibody, V domains shown)
VH: QVQLVESGGGVVQPGRSLRLSCAASGFTFSRKGMHWVRQAPVKGLEWVAVISYDGSNKYYADSVKGRFTISRDNSKNTLYLQMNSLTAEDTAVYYCAKEGGHDYGGTFDYWGQGTLVTVSS
VL: not shown
notes: as for B5
- Kd [2]: 4.18 nM
- T½ [2]: 4 min
- koff [2]: 0.00323 s⁻¹
- kon [2]: 773000 M⁻¹ s⁻¹

B26: H2M2689N (antibody, mouse IgG2, V domains shown)
VH: B25 VH
VL: not shown
notes: as for B12
- Kd [1]: 0.0583 nM
- T½ [1]: 116 min
- koff [1]: 9.97e-05 s⁻¹
- kon [1]: 1.71e+06 M⁻¹ s⁻¹
